Laboratory results from patent US20020037506, “Aptamer based two-site binding assay” (published 2002).

Tests used:
[1] = biological target: T1, alpha-thrombin (Homo sapiens, UniProt P00734;P00734 P00734:328-363,P00734:364-622); assay: flow; reporter with MC-beads, 30 nM thrombin, 37 C; values in figure only
[2] = biological target: T1, alpha-thrombin; assay: flow; reporter with DT-beads (FIG. 2 legend cites SEQ 12 but Table 1 gives SEQ 7); 50 mM Tris pH 7.5, 100 mM NaCl, 2 mM MgCl2, 37 C
[3] = biological target: T1, alpha-thrombin; assay: detector in two-step sandwich on nylon membrane with immobilized DT-aptamer, room temperature, 100 uM heparin

B1: DT-5'-LNK-F (ssDNA)
DNA: TTTTTGCTTAGTCCGTGGTAGGGCAGGTTGGGGTGACTAAGC
- binding result [1]: binds

B2: MC-5'-LNK-F (ssDNA)
DNA: TTTTTTGTAGTCACTGGTTGGTGAGGTTGGGTGACTAC
- binding result [2]: binds

B3: MC-DIMR-F (ssDNA)
DNA: GTAGTCACTGGTTGGTGAGGTTGGGTGACTACTTTTTTCATCAGTGGGTTGGAGTGGTTGGTCACTGATG
modifications: dimer; second half is the MC sequence in reverse order, structure drawn as image only
- binding result [3]: binds
